Assay results from patent US20160264649A1.
Substitutions are numbered along the chain they refer to.

B1: 1503_H05 (PG16) (TCN-119) (antibody, V domains shown)
VH: QEKLVESGGGVVQPGGSLRLSCLASGFTFHKYGMHWVRQAPGKGLEWVALISDDGMRKYHSDSMWGRVTISRDNSKNTLYLQFSSLKVEDTAMFFCAREAGGPIWHDDVKYYDFNDGYYNYHYMDVWGKGTIVTVSS
VL: QSALTQPASVSGSPGQTITISCNGTRSDVGGFDSVSWYQQSPGKAPKVMVFDVSHRPSGISNRFSGSKSGNTASLTISGLHIEDEGDYFCSSLTDRSHRIFGGGTKVTVLG
B2: 1469_M23 (PG16) (TCN-118) (antibody, V domains shown)
VH: B1 VH with I132T
VL: B1 VL with K44R, V107L
B3: 1456_A12 (PG16) (TCN-117) (antibody, V domains shown)
VH: B1 VH with Q1H, K3Q, S7A, K87R, I132K
VL: B1 VL with R26S, S27R, I60M, V107L
B4: 1489_I13 (PG16) (TCN-120) (antibody, V domains shown)
VH: B1 VH with K3Q, V5L, D62N, I132T
VL: B1 VL with R26S

The binders below were run against HIV-1 92RW020 Env (HIV-1) (assay: cell-based or functional assay).

Binder | IC50, TZM-bl pseudovirus neutralization
B1 | 0.02 µg/mL
B2 | 0.05 µg/mL
B3 | 0.05 µg/mL
B4 | 0.03 µg/mL

Each binder was assayed against HIV-1 AC10 Env (HIV-1) (assay: cell-based or functional assay).

Binder | IC50, TZM-bl pseudovirus neutralization
B1 | < 0.01 µg/mL
B2 | < 0.01 µg/mL
B3 | < 0.01 µg/mL
B4 | < 0.01 µg/mL

What follows are binders tested against HIV-1 ADA Env (HIV-1) (assay: cell-based or functional assay).

Binder | IC50, TZM-bl pseudovirus neutralization
B1 | 0.003 µg/mL
B2 | 0.005 µg/mL
B3 | 0.005 µg/mL
B4 | 0.008 µg/mL

Each binder was assayed against HIV-1 CAAN Env (HIV-1) (assay: cell-based or functional assay).

Binder | IC50, TZM-bl pseudovirus neutralization
B1 | 13.5 µg/mL
B2 | 17.7 µg/mL
B3 | 10.6 µg/mL
B4 | 24.9 µg/mL

Each binder was assayed against HIV-1 CAP45 Env (HIV-1) (assay: cell-based or functional assay).

Binder | IC50, TZM-bl pseudovirus neutralization
B1 | < 0.01 µg/mL
B2 | < 0.01 µg/mL
B3 | < 0.01 µg/mL
B4 | < 0.01 µg/mL

These binders were tested against HIV-1 DU156 Env (HIV-1) (assay: cell-based or functional assay).

Binder | IC50, TZM-bl pseudovirus neutralization
B1 | < 0.01 µg/mL
B2 | < 0.01 µg/mL
B3 | < 0.01 µg/mL
B4 | < 0.01 µg/mL

The binders below were run against HIV-1 DU422 Env (HIV-1) (assay: cell-based or functional assay).

Binder | IC50, TZM-bl pseudovirus neutralization
B1 | 0.71 µg/mL
B2 | 0.97 µg/mL
B3 | 0.36 µg/mL
B4 | 1.87 µg/mL

What follows are binders tested against HIV-1 Du172 Env (HIV-1) (assay: cell-based or functional assay).

Binder | IC50, TZM-bl pseudovirus neutralization
B1 | < 0.01 µg/mL
B2 | < 0.01 µg/mL
B3 | < 0.01 µg/mL
B4 | < 0.01 µg/mL

These binders were tested against HIV-1 JR-CSF Env (wild-type) (HIV-1) (UniProt P20871) (assay: cell-based or functional assay).

Binder | IC50, TZM-bl pseudovirus neutralization
B1 | 0.001 µg/mL
B2 | 0.002 µg/mL
B3 | 0.001 µg/mL
B4 | 0.002 µg/mL

The binders below were run against HIV-1 JR-CSF Env I309A (HIV-1) (UniProt P20871) (assay: cell-based or functional assay).

Binder | IC50, TZM-bl pseudovirus neutralization
B1 | > 1 µg/mL
B2 | > 1 µg/mL
B3 | > 1 µg/mL
B4 | > 1 µg/mL

The binders below were run against HIV-1 JR-CSF Env Y318A (HIV-1) (UniProt P20871) (assay: cell-based or functional assay).

Binder | IC50, TZM-bl pseudovirus neutralization
B1 | > 1 µg/mL
B2 | > 1 µg/mL
B3 | > 1 µg/mL
B4 | > 1 µg/mL

What follows are binders tested against HIV-1 JR-FL Env E168K (HIV-1) (assay: cell-based or functional assay).

Binder | IC50, TZM-bl pseudovirus neutralization
B1 | 0.002 µg/mL
B2 | 0.005 µg/mL
B3 | 0.003 µg/mL
B4 | 0.005 µg/mL

These binders were tested against HIV-1 PVO.4 Env (HIV-1) (assay: cell-based or functional assay).

Binder | IC50, TZM-bl pseudovirus neutralization
B1 | 11 µg/mL
B2 | 21.2 µg/mL
B3 | 10.4 µg/mL
B4 | 20.6 µg/mL

The binders below were run against HIV-1 REJ04541 Env (HIV-1) (assay: cell-based or functional assay).

Binder | IC50, TZM-bl pseudovirus neutralization
B1 | 0.22 µg/mL
B2 | 0.39 µg/mL
B3 | < 0.01 µg/mL
B4 | 0.34 µg/mL

Each binder was assayed against HIV-1 THRO.18 Env (HIV-1) (assay: cell-based or functional assay).

Binder | IC50, TZM-bl pseudovirus neutralization
B1 | 4.12 µg/mL
B2 | 7.01 µg/mL
B3 | 2.08 µg/mL
B4 | 7.41 µg/mL

The binders below were run against HIV-1 TR0.11 Env (HIV-1) (assay: cell-based or functional assay).

Binder | IC50, TZM-bl pseudovirus neutralization
B1 | 4.3 µg/mL
B2 | 7.52 µg/mL
B3 | 3.05 µg/mL
B4 | 10.9 µg/mL

Each binder was assayed against HIV-1 ZM214 Env (HIV-1) (assay: cell-based or functional assay).

Binder | IC50, TZM-bl pseudovirus neutralization
B1 | > 25 µg/mL
B2 | > 25 µg/mL
B3 | > 25 µg/mL
B4 | > 25 µg/mL

These binders were tested against HIV-1 ZM233 Env (HIV-1) (assay: cell-based or functional assay).

Binder | IC50, TZM-bl pseudovirus neutralization
B1 | < 0.01 µg/mL
B2 | < 0.01 µg/mL
B3 | < 0.01 µg/mL
B4 | < 0.01 µg/mL

Each binder was assayed against HIV-1 ZM249 Env (HIV-1) (assay: cell-based or functional assay).

Binder | IC50, TZM-bl pseudovirus neutralization
B1 | < 0.01 µg/mL
B2 | < 0.01 µg/mL
B3 | < 0.01 µg/mL
B4 | < 0.01 µg/mL

These binders were tested against MuLV envelope (control pseudovirus) (assay: cell-based or functional assay).

Binder | IC50, TZM-bl pseudovirus neutralization
B1 | > 25 µg/mL
B2 | > 25 µg/mL
B3 | > 25 µg/mL
B4 | > 25 µg/mL
